Results on 3 molecules are retold here after patent publication US20240343823A1 (Ablynx, published 2024).

Assay [1] addresses T1, human GPC3 on tumor cell lines (HepG2, Huh-7, NCI-H661, MKN-45, NCI-H23, BxPC-3, NCI-H292) (human, UniProt P51654 25-554).
T1 construct: Endogenous GPC3 of human cancer cell lines; also called GPC3 on HepG2; GPC3 on Huh-7
Kind of assay: pHAb internalization assay on Huh-7 cells, flow cytometry (BD FACSArray, yellow laser); indirect readout that needs binding and uptake; concentration not given. On the procedure:
The assay was read on a BD FACSArray with a yellow laser (pHAb: excitation maximum at 532 nm, emission maximum at 560 nm). The internalization rate was determined by quantifying the internalization at 37° C. at different timepoints (0.5 h, 3 h, 24 h and 48 h) compared to 4° C. at 0.5 h (Table 10, FIG. 8A).
On the technique in general: In flow cytometry, cells or beads pass a laser one at a time.

Assay [2] addresses mouse serum albumin (DivBioScience cat no IMSA) (mouse, UniProt P07724 25-608). In words: SPR ProteOn XPR36, serum albumin immobilized by amine coupling, 1:1 model. On the procedure: (§1) Serum albumin proteins were immobilized on a GLC Sensor Chip (Biorad) via amine coupling, using EDC and NHS chemistry (running buffer: HBS-EP+, pH 7.4). Purified ISVDs were injected for 2 minutes (flow rate 45 μL/min) at different concentrations (between 0.24 nM and 500 nM) and dissociation was followed for 900 s. Regeneration was performed by injecting 10 mM Glycine-HCl (pH 1.5) for 47 seconds (flow rate 100 μL/min). Data was double referenced by subtracting a reference ligand lane and a blank buffer injection. Processed sensorgrams were analyzed based on the 1:1 interaction model (Langmuir binding model) using ProteOn Manager 3.1.0 (Version 3.1.0.6) software.

The target of assay [3] is T2, human serum albumin (Sigma cat no A8763) (human, UniProt P02768 25-609).
T2 construct: also called HSA
Described as above. On the procedure: as §1

Assay [4] concerns the target T3, cyno serum albumin (in house produced from animal tissue) (cynomolgus).
T3 construct: also called cynomolgus serum albumin
The assay is described as above. On the procedure:
as §1

For assay [5], the target named is T4, TCRab on primary human T cells (human, UniProt P01848 1-140; P01850 1-176).
T4 construct: whole, on cells; T cells isolated from buffy coats; also called Primary hu T cells; human TCR
T4 TCR alpha (looked up): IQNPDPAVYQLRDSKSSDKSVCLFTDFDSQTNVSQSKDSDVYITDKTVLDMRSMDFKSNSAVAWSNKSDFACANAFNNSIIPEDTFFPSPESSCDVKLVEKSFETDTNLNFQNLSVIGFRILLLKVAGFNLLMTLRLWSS
T4 TCR beta (looked up): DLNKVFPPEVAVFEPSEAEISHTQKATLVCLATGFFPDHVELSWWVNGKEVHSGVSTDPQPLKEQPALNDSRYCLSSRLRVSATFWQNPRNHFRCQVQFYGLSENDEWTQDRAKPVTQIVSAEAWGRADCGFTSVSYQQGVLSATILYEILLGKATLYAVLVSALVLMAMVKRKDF
In words: competition flow cytometry on primary human T cells, competitor T017000624 at EC30 (2E-08 M). On the procedure:
(§2) T cells (human T cells obtained as described in Example 3 and cyno T cells purchased from LPT laboratory, Germany) were thawed and counted on the day of the assay and diluted to a concentration of 1E+06 cells/mL, before adding 75 μL to the wells of a V-bottom 96-well plate (Greiner, cat no 651180). Cells were washed once with cold FACS buffer, before adding 25 μL Nb and 25 μL competitor to the wells. […] Cells were resuspended and plates were incubated at 4° C. for 90 minutes, after which plates were washed twice in cold FACS buffer. Cells were resuspended in 50 μl 1/1000 diluted Monoclonal ANTI-FLAG® M2 (Sigma Aldrich, cat no F1804) in FACS buffer and incubated at 4° C. for 30 minutes. Plates were washed twice in cold FACS buffer. […] Plates were washed twice in cold FACS buffer. Cells were resuspended in 55 μL 1/1000 diluted Propidium Iodide (Sigma-Aldrich, cat no P4170) in FACS buffer before acquiring data on the MACSQuant X (Miltenyi biotec).

The target in assay [6] is T5, TCRab on primary cyno T cells (cynomolgus).
T5 construct: whole, on cells; also called Primary cy T cells; cyno TCR
In words: competition flow cytometry on cyno T cells, competitor T017000623 at EC30 (5E-08 M). On the procedure:
as §2

For assay [7], the target named is T6, cyno TCRab, in house produced (extracellular domains fused to a zipper peptide) (cynomolgus).
T6 construct: Numbering of the four differences is not explained; not shown: variable domains, if any; any residues beyond C131 of the beta chain
T6 alpha: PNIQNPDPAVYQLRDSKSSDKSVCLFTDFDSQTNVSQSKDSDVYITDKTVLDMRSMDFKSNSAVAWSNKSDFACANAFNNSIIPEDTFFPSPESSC
T6 beta: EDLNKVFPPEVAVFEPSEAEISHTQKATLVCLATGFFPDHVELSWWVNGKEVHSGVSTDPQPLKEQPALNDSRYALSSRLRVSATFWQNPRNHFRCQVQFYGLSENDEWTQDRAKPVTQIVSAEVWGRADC
In words: SPR ProteOn XPR36, TCRab immobilized by amine coupling, 1:1 model. On the procedure: as §1, with “Recombinant TCR” for “Serum albumin”, “0.2” for “0.24”, “200” for “500”, “3 M MgCl₂” for “10 mM Glycine-HCl (pH 1.5)”, “3 minutes” for “47 seconds”, “90” for “100”

T3 sequence (A2V9Z4 25-608): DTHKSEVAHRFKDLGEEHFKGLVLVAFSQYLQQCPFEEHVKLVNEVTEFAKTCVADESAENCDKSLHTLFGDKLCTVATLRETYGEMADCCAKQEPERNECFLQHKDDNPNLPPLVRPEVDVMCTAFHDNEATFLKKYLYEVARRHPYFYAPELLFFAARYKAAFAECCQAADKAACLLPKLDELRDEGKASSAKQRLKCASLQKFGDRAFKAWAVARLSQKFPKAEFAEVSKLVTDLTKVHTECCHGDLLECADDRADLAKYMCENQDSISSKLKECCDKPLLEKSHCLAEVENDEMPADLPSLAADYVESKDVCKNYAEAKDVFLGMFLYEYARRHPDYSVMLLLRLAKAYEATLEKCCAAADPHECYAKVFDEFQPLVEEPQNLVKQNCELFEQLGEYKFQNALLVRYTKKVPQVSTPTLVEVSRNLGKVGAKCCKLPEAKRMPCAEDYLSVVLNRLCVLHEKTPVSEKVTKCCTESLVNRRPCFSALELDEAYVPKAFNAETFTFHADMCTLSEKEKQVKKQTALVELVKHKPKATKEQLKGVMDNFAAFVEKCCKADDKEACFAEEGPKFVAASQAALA
Sequence of mouse serum albumin (DivBioScience cat no IMSA) (P07724 25-608 limits assumed): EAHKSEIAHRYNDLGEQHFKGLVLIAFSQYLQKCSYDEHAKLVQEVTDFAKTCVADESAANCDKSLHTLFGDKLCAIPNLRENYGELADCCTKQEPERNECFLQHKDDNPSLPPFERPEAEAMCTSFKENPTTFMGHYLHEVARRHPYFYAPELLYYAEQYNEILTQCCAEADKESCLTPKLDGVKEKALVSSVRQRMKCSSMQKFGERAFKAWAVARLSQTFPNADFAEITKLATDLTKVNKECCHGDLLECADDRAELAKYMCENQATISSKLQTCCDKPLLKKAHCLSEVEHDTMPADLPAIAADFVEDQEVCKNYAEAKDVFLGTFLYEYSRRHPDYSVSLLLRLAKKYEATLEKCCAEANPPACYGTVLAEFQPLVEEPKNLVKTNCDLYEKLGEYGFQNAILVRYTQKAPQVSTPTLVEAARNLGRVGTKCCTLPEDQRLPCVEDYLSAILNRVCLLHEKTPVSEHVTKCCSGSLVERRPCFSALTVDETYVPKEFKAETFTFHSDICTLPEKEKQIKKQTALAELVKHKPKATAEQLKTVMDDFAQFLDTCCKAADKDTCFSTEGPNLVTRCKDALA

B1: A022600373 (bispecific antibody)
chain: DVQLVESGGGVVQPGGSLRLSCVASGYVHKINFYGWYRQAPGKEREKVAHISIGDQTDYADSAKGRFTISRDESKNTVYLQMNSLRPEDTAAYYCRALSRIWPYDYWGQGTLVTVSSGGGGSGGGGSGGGGSGGGGSEVQLVESGGGVVQPGGSLRLSCAASGFTFRSFGMSWVRQAPGKGPEWVSSISGSGSDTLYADSVKGRFTISRDNSKNTLYLQMNSLRPEDTALYYCTIGGSLSRSSQGTLVTVSSGGC
modifications: pHAb dye on the C-terminal GGC (degree of labeling 1)
notes: also called TCE01-20GS-ALB23002-GGC
Turning to B1, the binding result in assay [1] was “no binding”.

B2: ALB223 (VHH)
VHH: EVQLVESGGGVVQPGGSLRLSCAASGFTFRSFGMSWVRQAPGKGPEWVSSISGSGSDTLYADSVKGRFTISRDNSKNTLYLQMNSLRPEDTALYYCTIGGSLSRSSQGTLVTVSS
notes: also called ALB23002-A
With B2, the values for the Kd in assay [2], in assay [3] and in assay [4] were 5.3 nM, 0.88 nM and 0.57 nM, respectively.

B3: T017000698 (bispecific antibody)
chain: DVQLVESGGGVVQPGGSLRLSCVASGYVHKINFYGWYRQAPGKEREKVAHISIGDQTDYADSAKGRFTISRDESKNTVYLQMNSLRPEDTAAYYCRALSRIWPYDYWGQGTLVTVSSGGGGSGGGSEVQLVESGGGVVQPGGSLRLSCAASGFTFRSFGMSWVRQAPGKGPEWVSSISGSGSDTLYADSVKGRFTISRDNSKNTLYLQMNSLRPEDTALYYCTIGGSLSRSSQGTLVTVSSA
notes: Bivalent ISVD construct: anti-TCR and anti-albumin; also called TCE01-9GS-ALB23002-A
B3: the IC50 (commonly the concentration that gives 50% inhibition) in assay [5] came out at 190 nM; in assay [6], 250 nM. For the same molecule, in assay [7], the Kd (in general, a measure of binding affinity in units of concentration) stood at 11 nM.
